For 4 sequences, binding results are on record in PMC10703047.

The target in this series is DosR (DevR) (Mycobacterium tuberculosis H37Rv) (UniProt P9WMF9). The series can be described thus: EMSA. For orientation: In EMSA bound probe runs differently from free probe, usually more slowly.
Sequence of DosR (DevR) (Mycobacterium tuberculosis H37Rv) (P9WMF9 whole entry): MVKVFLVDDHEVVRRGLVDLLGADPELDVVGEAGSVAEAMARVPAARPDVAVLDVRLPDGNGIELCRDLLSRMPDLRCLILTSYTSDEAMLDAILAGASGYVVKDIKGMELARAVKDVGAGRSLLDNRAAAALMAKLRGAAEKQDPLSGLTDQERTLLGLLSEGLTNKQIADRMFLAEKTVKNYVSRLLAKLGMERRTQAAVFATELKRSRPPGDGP
Turning to “AGCGGGATCGCATCACGCATTGGGTACCTCCGATGCTGGCGGATAAAGCCTTTCGTGCCGGCGGATGATCCGAGGTCGCTAGCTGGCGAGGGCCATGGGCGAGCA (double strand) [rv2625 promoter]”, the binding result is listed as “no binding”. To “AGCGGTTCGGACTCCACCGCGTCTCCTGAGAGCTTCAGCGTTACATCGGTTGACGAGTTGAAGAATTTATCAGATAGTGCGGATGCGTGCGGGCCGCCCGCGGCCAATCGGCTACGGCGTACGCGAGTCAGC (double strand) [rv0081 promoter]” belongs “no binding”; to “TAAGTGGACACGAACCGTAAGTTTAGACTTACGGATATTCTTCCGCAAGGGTGCGCGGGTGGTGTGACACGTGATCCGGGCATCCCGTCACCCATGGCGTTGGAGCCGAGTATCGGTTGGCGACGTTGGCCCGCCGGAAAGTCGACTGGTACAAGCATTTTCCGAGAACCCATGCGGCGCGTCGCGGCGATGACCGGCAGAGAGGCTCCCTAGTATTGCGGCGTGCTGGATCGCTATGGAACCGA (double strand) [rv1955 promoter]”, “binds”. Then “TGGTATCTGACACTGCTACGTTCCTTTCCGCTTGTTGGTCCACGTCCTTGCACGAGCCAACCGGACCATGGTCCGATTTATTCCGATCGCGTTACAGTGCAAAGGTGAGCGGCGCCGAGC (double strand) [rv3054 promoter]”, with “binds”.
